Assay results as given in article PMC4022893, “Evidence for Follicle-stimulating Hormone Receptor as a Functional Trimer*” (The Journal of Biological Chemistry, 2014).

T1: human follicle-stimulating hormone receptor on CHO-DUKX cell membranes (human, UniProt P23945 18-695)
T1 construct: follicle-stimulating hormone receptor, human, expressed in CHO-DUKX cells; Used as isolated membranes, not live cells; also called FSHR; hFSHR; source: CHO-DUKX cells expressing the human FSH receptor, membrane preparation (nitrogen cavitation, 100,000 x g pellet)
T1 sequence (looked up): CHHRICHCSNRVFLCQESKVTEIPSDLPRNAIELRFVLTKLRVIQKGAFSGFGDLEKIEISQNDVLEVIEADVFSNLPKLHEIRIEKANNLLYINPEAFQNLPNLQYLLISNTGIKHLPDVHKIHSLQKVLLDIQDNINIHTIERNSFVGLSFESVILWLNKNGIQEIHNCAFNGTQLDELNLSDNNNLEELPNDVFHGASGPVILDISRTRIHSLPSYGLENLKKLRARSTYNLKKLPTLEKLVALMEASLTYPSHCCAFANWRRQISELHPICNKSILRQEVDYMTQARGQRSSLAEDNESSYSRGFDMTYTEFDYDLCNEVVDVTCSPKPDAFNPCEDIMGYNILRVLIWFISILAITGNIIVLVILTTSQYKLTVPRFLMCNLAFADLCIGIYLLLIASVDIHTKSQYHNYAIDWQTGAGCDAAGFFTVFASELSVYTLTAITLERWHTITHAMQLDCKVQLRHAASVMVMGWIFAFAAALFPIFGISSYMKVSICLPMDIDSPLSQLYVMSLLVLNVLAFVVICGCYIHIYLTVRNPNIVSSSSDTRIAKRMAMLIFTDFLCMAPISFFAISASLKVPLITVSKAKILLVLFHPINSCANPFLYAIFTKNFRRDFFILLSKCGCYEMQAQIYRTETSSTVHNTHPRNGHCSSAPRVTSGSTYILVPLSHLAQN

B1: full ectodomain of human FSHR (FSHRED, Ser16-Arg366) (domain or fragment, UniProt P23945 16-366, looked up)
chain: SGCHHRICHCSNRVFLCQESKVTEIPSDLPRNAIELRFVLTKLRVIQKGAFSGFGDLEKIEISQNDVLEVIEADVFSNLPKLHEIRIEKANNLLYINPEAFQNLPNLQYLLISNTGIKHLPDVHKIHSLQKVLLDIQDNINIHTIERNSFVGLSFESVILWLNKNGIQEIHNCAFNGTQLDELNLSDNNNLEELPNDVFHGASGPVILDISRTRIHSLPSYGLENLKKLRARSTYNLKKLPTLEKLVALMEASLTYPSHCCAFANWRRQISELHPICNKSILRQEVDYMTQARGQRSSLAEDNESSYSRGFDMTYTEFDYDLCNEVVDVTCSPKPDAFNPCEDIMGYNILR
notes: follicle-stimulating hormone receptor, human, full ectodomain, residues Ser16-Arg366; Three copies form a trimer in the crystal; also called FSHED; FSHR extracellular domain
B2: 125I-N52D-FSH (FSH with Asn52 of the alpha-subunit mutated to aspartate) (ligand)
chain 1: not shown
chain 2: NSCELTNITIAIEKEECRFCISINTTWCAGYCYTRDLVYKDPARPKIQKTCTFKELVYETVRVPGCAHHADSLYTYPVATQCHCGKCDSDSTDCTVRGLGPSYCSFGEMKE
modifications: no glycan at position 52; 125I label (chain not stated)
notes: glycoprotein hormones alpha chain (FSH alpha-subunit), human; Heterodimer; the other three glycosylation sites are unchanged; also called αN52D-FSH mutant; mutant-N52D; source: recombinant, prepared using the same protocols as the fully glycosylated FSH; 125I-labelled (PerkinElmer Life Sciences)

Columns and labels:
[1] = target: the molecule itself; assay: crystal structure; FSH-FSHRED complex at 10 mg/ml, 20 °C, hanging drops, 0.1 M imidazole pH 8.0, 20% Jeffamine M-600; space group P3_(1)
[2] = target: T1, human follicle-stimulating hormone …; assay: radioligand binding; 5 μg CHO-FSHR membrane with increasing concentrations of 125I-ligand; 10 mM Tris pH 7.4, 5 mM MgCl2, 0.2% BSA; 90 min at 37 °C; filtration; nonspecific binding with 500-fold excess of FSH; no Compound 5; conditions: one partner purified
[3] = target: T1, human follicle-stimulating hormone …; assay: as above; conditions: one partner purified; remark: listed apart in the source

| Binder | stoichiometry N [1] | receptor binding ratio of the N52D mutant to fully glycosylated FSH [2] | Kd [3] [nM] |
| --- | --- | --- | --- |
| B1 | 3 | – | – |
| B2 | – | ~3 | 0.4 |
